Target: T1, purified recombinant HIS epitope-tagged NOTCH3 extracellular domain (human, UniProt Q9UM47 40-1643, glycosylated)
T1 construct: NOTCH3, human, complete extracellular domain; written as one chain so that the self-association rows stand for chain with chain; also called N3 ECD; NOTCH3-ECD protein; source: PEC.3.30 (modified Per.E2A) cells, purified from supernatant (HisTrap HP, Superdex 200); not shown: HIS, C-terminal, kept
Assay: SPR; Biacore T200; NOTCH3-ECD immobilized on NTA Series S chip by nickel-NTA capture-coupling (about 3500 RU); peptides flowed at 30 μL/min; 50 mM HEPES, 150 mM NaCl, 25 °C; steady-state affinity model
Details: both partners purified

T1 sequence (Q9UM47 40-1643): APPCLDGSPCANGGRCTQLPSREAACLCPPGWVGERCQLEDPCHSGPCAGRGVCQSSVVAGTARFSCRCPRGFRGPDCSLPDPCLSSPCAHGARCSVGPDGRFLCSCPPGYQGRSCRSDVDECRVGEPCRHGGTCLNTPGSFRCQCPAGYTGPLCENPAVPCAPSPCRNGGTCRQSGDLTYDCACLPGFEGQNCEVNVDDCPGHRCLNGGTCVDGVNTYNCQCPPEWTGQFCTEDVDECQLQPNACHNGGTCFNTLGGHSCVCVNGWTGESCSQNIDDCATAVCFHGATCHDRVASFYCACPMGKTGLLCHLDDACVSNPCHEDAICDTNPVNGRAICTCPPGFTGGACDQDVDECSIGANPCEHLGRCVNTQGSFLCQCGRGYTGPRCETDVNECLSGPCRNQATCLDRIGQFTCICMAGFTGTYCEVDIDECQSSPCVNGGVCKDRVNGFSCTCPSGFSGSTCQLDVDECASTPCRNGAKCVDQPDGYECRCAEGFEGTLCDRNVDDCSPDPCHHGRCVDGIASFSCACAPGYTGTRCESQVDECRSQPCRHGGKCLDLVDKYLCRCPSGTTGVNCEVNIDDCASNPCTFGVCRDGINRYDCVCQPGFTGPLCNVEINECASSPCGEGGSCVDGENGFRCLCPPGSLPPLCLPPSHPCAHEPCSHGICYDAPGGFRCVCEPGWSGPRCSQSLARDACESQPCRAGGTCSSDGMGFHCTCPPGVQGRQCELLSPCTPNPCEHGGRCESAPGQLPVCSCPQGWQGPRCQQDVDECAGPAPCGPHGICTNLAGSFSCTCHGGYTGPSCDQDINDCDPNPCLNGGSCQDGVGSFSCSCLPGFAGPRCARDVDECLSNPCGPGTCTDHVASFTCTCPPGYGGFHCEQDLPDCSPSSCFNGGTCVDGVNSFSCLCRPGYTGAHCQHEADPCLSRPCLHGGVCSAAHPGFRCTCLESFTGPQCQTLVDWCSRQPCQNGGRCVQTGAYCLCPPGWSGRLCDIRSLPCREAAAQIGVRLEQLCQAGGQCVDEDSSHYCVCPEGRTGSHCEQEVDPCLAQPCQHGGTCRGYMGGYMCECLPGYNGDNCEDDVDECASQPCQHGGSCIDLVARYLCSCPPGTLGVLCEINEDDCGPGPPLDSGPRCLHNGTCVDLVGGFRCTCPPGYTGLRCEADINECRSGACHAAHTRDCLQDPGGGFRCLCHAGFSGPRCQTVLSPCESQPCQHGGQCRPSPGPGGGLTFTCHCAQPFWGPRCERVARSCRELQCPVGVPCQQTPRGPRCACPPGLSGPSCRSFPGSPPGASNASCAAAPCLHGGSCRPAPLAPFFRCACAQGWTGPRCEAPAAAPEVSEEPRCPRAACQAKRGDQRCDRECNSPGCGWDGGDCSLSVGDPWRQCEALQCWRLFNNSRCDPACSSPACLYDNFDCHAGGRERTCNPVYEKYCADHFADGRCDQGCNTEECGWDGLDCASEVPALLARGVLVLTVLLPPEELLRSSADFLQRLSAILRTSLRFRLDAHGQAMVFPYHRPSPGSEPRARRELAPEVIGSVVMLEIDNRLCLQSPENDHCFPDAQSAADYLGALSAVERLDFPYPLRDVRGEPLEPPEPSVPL

binding result: binds
B1: N34 peptide (peptide)
peptide: EKYCADHFADGR
notes: NOTCH3, human, peptide centred on the helix encompassing the core dimerization motif of the NRR; also called N3 peptide
